Source: patent US20130039922A1 (YEDA RESEARCH AND DEVELOPMENT, published 2013)

T1: mouse MMP-9 catalytic domain (mouse, UniProt P41245 107-215; P41245 391-443, biotinylated (site not stated))
T1 construct: range 107-215;range 391-443; also called Biotinylated mouse catalytic MMP-9; not shown: N-terminal His tag from the pET3a construct
T1 sequence (looked up): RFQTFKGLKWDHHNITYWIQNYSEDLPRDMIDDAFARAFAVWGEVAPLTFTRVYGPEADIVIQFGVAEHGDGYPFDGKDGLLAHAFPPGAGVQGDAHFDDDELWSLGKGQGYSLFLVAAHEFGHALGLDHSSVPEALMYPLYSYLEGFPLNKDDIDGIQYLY

T2: Human pro-MMP-2 (human, UniProt P08253 30-660)
T2 construct: Zymogen with pro-domain; also called MMP-2 zymogen
T2 sequence (looked up): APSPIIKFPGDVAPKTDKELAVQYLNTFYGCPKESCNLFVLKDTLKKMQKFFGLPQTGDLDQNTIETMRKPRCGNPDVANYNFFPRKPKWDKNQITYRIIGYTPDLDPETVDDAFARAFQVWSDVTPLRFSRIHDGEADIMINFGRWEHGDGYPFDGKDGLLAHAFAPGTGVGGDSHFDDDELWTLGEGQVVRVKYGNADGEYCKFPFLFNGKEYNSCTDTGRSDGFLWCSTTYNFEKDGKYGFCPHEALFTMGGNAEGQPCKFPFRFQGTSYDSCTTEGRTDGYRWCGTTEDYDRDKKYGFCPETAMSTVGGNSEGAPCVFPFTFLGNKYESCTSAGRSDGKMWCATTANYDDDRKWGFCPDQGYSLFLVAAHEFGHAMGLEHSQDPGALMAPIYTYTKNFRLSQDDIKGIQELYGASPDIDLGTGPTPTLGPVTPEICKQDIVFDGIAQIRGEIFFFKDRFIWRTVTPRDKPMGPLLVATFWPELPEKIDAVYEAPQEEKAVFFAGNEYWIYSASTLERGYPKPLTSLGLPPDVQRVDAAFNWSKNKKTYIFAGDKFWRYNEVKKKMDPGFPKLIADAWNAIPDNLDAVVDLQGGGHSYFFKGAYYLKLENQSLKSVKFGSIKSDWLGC

B1: SDS3 (antibody, V domains shown)
VH: VQLQESGGGLVKPGGSLKLSCAASGFAFSTYDMSWIRQTPEKRLEWVATISSGGSYTYYPDSVKGRFTISKDNARNTLYLQMSSLRSGDTALYYCTRFRYDGWYFDVWGQG
VL: DVLITQTPLSLPVSLGDQASISCRSSQSIVHSNGNTFLEWYLQKPGQSPKLLIYKVSNRFSGVPDRFSGSGSGTDFTLKISRVEAEDLGVYYCFQASHVPPTFGGG
notes: Mouse hybridoma monoclonal antibody raised against Zn-Tripod-KLH; also called SDS3 mAb; SDS3 metallobody
B2: SDS4 (antibody, V domains shown)
VH: EVQLQQSGPELVKPGASVKISCKASGYTFTGYYMHWVKQSPEKSLEWIGEINPSTGGTTYNQKFTGKATLTVDKSSSTAYMQLKSLTSDDSAVYYCASYYRYDWFAYWGQGTLVTVSA
VL: DVLMTQTPLSLPVSLGDQASISCRSSQSLVHSNGNTYLHWYLQKPGQSPKLLIYKVSNRFSGVPDRFSGSGSGTDFTLKISRVEAEDLGVYFCSQSTHVPFTFGSGTKLELKR
notes: Mouse hybridoma monoclonal antibody raised against Zn-Tripod-KLH; also called SDS4 mAb; SDS4 metallobody

How the values were obtained:
[1] = target: T3, MMP-9 catalytic fibronectin fragment (human or mouse (not told which)); experiment: SPR (BIAcore 3000), biotin-labeled MMP-9 on SA chip, antibody in flow; KD=kd/ka
T3 construct: domain: catalytic fibronectin fragment; Immobilized on a streptavidin (SA) sensor chip for SPR; also called Biotinylated human or mouse MMP-9 catalytic fibronectin fragment; Biotin-labeled MMP-9
Excerpt: (§1) FIGS. 13A-B are graphs illustrating results of SPR analysis of SDS3/SDS4 binding to MMP-9. Biotinylated human or mouse MMP-9 catalytic fibronectin fragment was immobilized on streptavidin (SA) chip. Control-corrected sensorgrams corresponding to the interaction of SDS3(FIG. 13A) and SDS4 (FIG. 13B) with biosensor surface-immobilized MMP-9 are shown. Antibody concentrations are represented by different colors, with specific values indicated. The data were collected in duplicate, and representative SPR sensorgrams in the ligand concentration series are shown. The ka (1/Ms) and kd (1/s) values were determined by SPR analysis, and KD (M) was calculated from ka and kd (KD=kd/ka).RU,response units.
The affinity between SDS3/SDS4 and human and mouse MMP-9 catalytic fibronectin fragment was measured with a BIAcore 3000 instrument (BIACORE). Biotin-labeled MMP-9 was immobilized on a sensor chips SA by the biotin-streptavidin coupling method, according to the manufacturer's instructions. […] The interaction was monitored as the change in the SPR response. The association and dissociation rate constants, kₐ and kd, were determined by analysis of the appropriate regions of the sensogram using the BIAevaluation 3.2 software package (Pharmacia). The apparent equilibrium dissociation constant KD was determined from the ratio of the two rate constants (kd/kₐ).

[2] = target: T4, active MMP-9 (as used in the enzymatic kinetic assay and the XAS studies); experiment: cell-based or functional assay
[3] = target: MMP-2 (as used in the enzymatic kinetic assay); experiment: cell-based or functional assay
[4] = target: T4, active MMP-9 (as used in the enzymatic …); experiment: cell-based or functional assay; remark: listed apart in the source
[5] = target: T3, MMP-9 catalytic fibronectin fragment; experiment: SPR (BIAcore 3000), biotin-labeled MMP-9 on SA chip, antibody in flow
Excerpt: as §1
The affinity between SDS3/SDS4 and human and mouse MMP-9 catalytic fibronectin fragment was measured with a BIAcore 3000 instrument (BIACORE). Biotin-labeled MMP-9 was immobilized on a sensor chips SA by the biotin-streptavidin coupling method, according to the manufacturer's instructions. All measurements were carried out at 25° C. and with a flow rate of 20 μl/min for both the association and dissociation phases in TBS buffer (50 mM Tris, 100 mM NaCl, 5 mM CaCl₂, pH 7.5). The interaction was monitored as the change in the SPR response. The association and dissociation rate constants, kₐ and kd, were determined by analysis of the appropriate regions of the sensogram using the BIAevaluation 3.2 software package (Pharmacia). The apparent equilibrium dissociation constant KD was determined from the ratio of the two rate constants (kd/kₐ).

[6] = target: MMP-2 (as used in the enzymatic kinetic assay); experiment: enzyme kinetics, fluorogenic peptide hydrolysis, fit to competitive inhibition
Procedure: (§2) Similarly the enzymatic activity of TACE was measured by monitoring the degradation of fluorogenic peptide QF-45 (Mca-[…]dinitrophenyl)-NH2) (SEQ ID NO: 2). A range of different mAb concentrations (0.4-30 μM) were pre-incubated with 2 nM of active enzyme in 50 mM Tris buffer (pH 7.5 37° C.), 200 mM NaCl, 5 mM CaCl₂, and 0.05% Brij 35 for 40 minutes at 37° C. The enzymatic reaction was initiated by addition of 10 μM of the fluorogenic peptide. Fluorescence (as a measure of substrate degradation) was immediately recorded continuously for 30-50 minutes. Initial reaction rates were measured and inhibition constants were evaluated by fitting to equation of competitive inhibition (vi/vo=Km+[S]/(Km(1+I/Ki)+[S]) [I. H. Segel, Enzyme Kinetics (Wiley-Interscience Publication, 1993)], where vi is initial velocity in the presence of mAb, vo is the initial velocity in the absence of mAb inhibitor, S is substrate concentration Km is the Michaelis-Menten constant and I is mAb concentration.
(§3) The effect of SDS3 and SDS4 on MMPs' enzymatic activity was examined using to standard peptide hydrolysis assay based on conversion of fluorogenic peptide substrate [C. G. Knight, F. Willenbrock, G. Murphy, FEBS Lett 296, 263 (Jan. 27, 1992)] as well as native gelatin substrate. Initial reaction velocities were measured in the presence of several concentrations of metallobodies incubated with various MMPs and tumor necrosis factor-alpha converting enzyme (TACE).

[7] = target: T4, active MMP-9 (as used in the enzymatic …); experiment: as above
Procedure: as §2, §3

[8] = target: T1, mouse MMP-9 catalytic domain; experiment: ELISA, biotinylated mouse catalytic MMP-9 on streptavidin plate, soluble antibody
Procedure: ELISA Binding Assay: Biotinylated mouse catalytic MMP-9 was coupled to streptavidin coated microtiter plate (Nunc) according to manufacture protocol. After the plates were coated, they were incubated with the SDS3/4 mAb for 2 hours at room temperature. The plates were washed, and bound Ab was detected with peroxidase-labeled goat anti-mouse IgG (Jackson) according to standard procedures. EC₅₀, or concentration of half-maximal binding was calculated from a four-parametric sigmoidal-curve fitting analysis.

Human Pro-MMP-9 = target: T5, Human Pro-MMP-9 (human, UniProt P14780 20-707); experiment: pull-down with SDS3 on protein A beads, SDS-PAGE, Coomassie staining
T5 construct: Zymogen with pro-domain; also called MMP-9 zymogen
Procedure: (§4) FIGS. 7A-B are photographs illustrating that SDS3 recognizes only the active conformation of MMP-2 and -9. FIG. 7A: Western blot analyses of MMP-9 using commercial anti-MMP-9 antibody. Lane 1—SDS3 captured from mice ascetic fluid by protein G beads; lane 2—As control non-related IgG similarly captured; lane 3—ProMMP-9, as a molecular weight marker to discern the active species. FIG. 7B: SDS3 mAb immobilized to protein A beads was analyzed for its ability to pull down purified ProMMP-9 (top), ProMMP-2 (middle) or active MMP-2 (bottom). Immunoprecipitates (lane 1) and unbound fraction (lane 2) were separated on SDS/PAGE gel, and visualized by Coomassie-staining. As a negative control for non-specific adsorption, enzyme alone was incubated with protein A Sepharose beads (lane 3).
(§5) After washing unbound antibody, purified enzyme ProMMP-9, Pro-MMP-2, or active MMP-2 fragment (catalytic and fibronectin domain), was added following 2 hour incubation under continuous stirring at room temperature. Bead-bound immune complex was collected by centrifugation and washed three times with PBS. Bound proteins were eluted with SDS sample buffer, fractionated by SDS-PAGE, and detected by Coomassie blue staining. As negative control for non specific adsorption enzyme was incubated with protein A Sepharose beads.

Human pro-MMP-2 = target: T2, Human pro-MMP-2; experiment: as above
Procedure: as §4, §5

[9] = target: T6, native bovine serum albumin (bovine, UniProt P02769 25-607); experiment: ELISA screen of hybridoma supernatants on plate-absorbed antigen
T6 construct: Unconjugated carrier protein used as the counter-screen in the hybridoma ELISA; also called native BSA; BSA
Procedure: Preparation of Anti-MMP Metallobodies Using Zn-Tripod-KLH as an Immunogen: Female BALB/c mice were immunized on day 1 with complete Freund adjuvant and 50 μg of Zinc-Tripod-KLH and boosted every two weeks with incomplete Freund adjuvant by emulsifying and intraperitoneal injection. Spleen cells from the immunized mice were fused with NSO murine myeloma cells and cultured in HAT (hypoxantine/aminopterin/thymidine) selection medium. The culture supernatants of the hybridoma were screened using an ELISA, employing pairs of wells in microtiter plates on which were absorbed MMP-9 catalytic domain and Zinc-Tripod-BSA as antigens (0.5 μg of MMP-9 or Zinc-Tripod-BSA conjugate per well). After incubation with 100 μl of the hybridoma supernatants, and with intervening washes with Tris-buffered saline, pH 7.5, containing 0.05% Tween 20 (TBS-Tween), the wells were incubated with a peroxidase-conjugated goat anti-mouse IgG, followed by a substrate solution containing 2′-azino-bis(3-ethylbenzthiazoline-6-sulfonic acid) diammonium salt. Hybridoma cells, corresponding to the supernatants that were positive on both MMP-9 and Zinc-Tripod—BSA and negative on native BSA, were then cloned by limited dilution. After repeated screenings, four clones showing the most distinctive recognition of both antigens were obtained and clone SDS3 was chosen for further characterization.

[10] = target: T7, human MT1-MMP catalytic domain (human, UniProt P50281 114-290); experiment: cell-based or functional assay
[11] = target: T7, human MT1-MMP catalytic domain; experiment: enzyme kinetics, fluorogenic peptide hydrolysis, fit to competitive inhibition
Procedure: as §2, §3

Sequence of MMP-2 (as used in the enzymatic kinetic assay) (P33434 110-467): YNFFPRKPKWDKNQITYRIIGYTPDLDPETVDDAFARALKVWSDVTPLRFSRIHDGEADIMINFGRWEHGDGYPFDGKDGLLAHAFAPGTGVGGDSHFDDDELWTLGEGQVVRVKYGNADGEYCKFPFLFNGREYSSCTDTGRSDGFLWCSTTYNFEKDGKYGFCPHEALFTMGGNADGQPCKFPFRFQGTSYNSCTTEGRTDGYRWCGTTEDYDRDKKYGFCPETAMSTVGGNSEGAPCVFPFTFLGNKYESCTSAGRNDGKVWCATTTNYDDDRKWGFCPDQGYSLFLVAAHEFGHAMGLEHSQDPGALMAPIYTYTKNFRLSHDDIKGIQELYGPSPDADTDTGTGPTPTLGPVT
T5 sequence (P14780 20-707): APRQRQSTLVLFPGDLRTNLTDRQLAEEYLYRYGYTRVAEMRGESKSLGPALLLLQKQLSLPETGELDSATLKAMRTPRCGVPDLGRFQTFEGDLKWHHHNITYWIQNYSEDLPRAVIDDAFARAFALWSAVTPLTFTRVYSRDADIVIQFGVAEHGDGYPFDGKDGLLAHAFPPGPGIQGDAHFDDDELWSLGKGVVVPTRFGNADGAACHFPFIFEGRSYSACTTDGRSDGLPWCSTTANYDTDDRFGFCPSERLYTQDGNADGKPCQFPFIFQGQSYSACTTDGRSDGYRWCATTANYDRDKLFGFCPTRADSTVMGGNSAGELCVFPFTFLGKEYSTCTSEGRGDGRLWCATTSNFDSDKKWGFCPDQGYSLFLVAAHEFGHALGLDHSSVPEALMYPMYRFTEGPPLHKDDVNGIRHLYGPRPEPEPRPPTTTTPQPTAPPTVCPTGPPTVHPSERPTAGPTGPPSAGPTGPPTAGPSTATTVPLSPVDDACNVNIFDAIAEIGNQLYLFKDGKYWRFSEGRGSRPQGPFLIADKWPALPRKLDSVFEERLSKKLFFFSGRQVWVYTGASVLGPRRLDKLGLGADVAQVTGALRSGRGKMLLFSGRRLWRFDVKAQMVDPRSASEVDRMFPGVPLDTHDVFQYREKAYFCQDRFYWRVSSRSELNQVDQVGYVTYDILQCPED
T6 sequence (P02769 25-607 limits assumed): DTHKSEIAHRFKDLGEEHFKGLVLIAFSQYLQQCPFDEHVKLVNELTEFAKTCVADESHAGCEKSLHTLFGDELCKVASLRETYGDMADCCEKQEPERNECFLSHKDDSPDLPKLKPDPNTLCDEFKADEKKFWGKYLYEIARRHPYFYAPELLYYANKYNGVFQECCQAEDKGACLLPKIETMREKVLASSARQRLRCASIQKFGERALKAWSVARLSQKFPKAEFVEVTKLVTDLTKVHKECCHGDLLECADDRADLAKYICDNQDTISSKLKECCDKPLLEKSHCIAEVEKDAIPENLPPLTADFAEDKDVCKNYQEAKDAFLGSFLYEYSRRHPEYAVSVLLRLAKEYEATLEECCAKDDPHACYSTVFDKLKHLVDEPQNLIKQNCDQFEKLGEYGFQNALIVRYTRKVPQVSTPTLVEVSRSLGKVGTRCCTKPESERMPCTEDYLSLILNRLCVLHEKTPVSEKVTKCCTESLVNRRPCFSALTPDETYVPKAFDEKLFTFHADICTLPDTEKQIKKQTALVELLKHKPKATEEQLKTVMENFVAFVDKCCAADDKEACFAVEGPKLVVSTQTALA

Binder	Kd [1] [nM]	IC50 (read off the curve) [2] [µM]	IC50 of inhibition of enzymatic activity (fluorogenic peptide hydrolysis) [3] [µM]	IC50 of inhibition of enzymatic activity (fluorogenic peptide hydrolysis) [4] [µM]	koff [5] [s⁻¹]	kon [5] [M⁻¹ s⁻¹]	Ki [6] [nM]	Ki [7] [nM]	EC50 [8] [nM]	binding result (Human Pro-MMP-9)	binding result (Human pro-MMP-2)	binding result [9]	IC50 of inhibition of enzymatic activity (fluorogenic peptide hydrolysis) [10] [µM]	Ki [11] [nM]
B1	200	~3	1.4	1	0.00135	6640	1000	1000	200	no binding	no binding	no binding	–	–
B2	3.78	–	0.056	0.07	0.00166	439000	54	54	15	–	–	–	1.42	1400
